Results as given in patent US7919584B1, “Methods and compositions for diagnosis and treatment of asthma” (Arbor Vita Corporation, priority 2005, dated 2011).
Ends that are not written are not given here. Peptide text beside a SMILES is read from it. * marks the point of attachment. Biotin = O=C1N[C@H]2[C@H](CS[C@H]2CCCCC(=O)*)N1

B1: Tat-hCLCA1 peptide (11 residues of Tat coupled to the C-terminal 9 amino acids of hCLCA1), biotinylated (peptide)
peptide: Biotin-YGRKKRRQRRRIGELQLSIA
notes: Synthetic peptide, HPLC purified; pre-mixed with HRP-streptavidin in the modified G assay; also called Tat-hCLCA1 (SIA)

Experiments:
GORASP1 d1 = target: T1, GORASP1 d1 (Homo sapiens, UniProt Q9BQQ3); assay: modified G assay titration, peptide vs constant GST-PDZ domain fusion; type: binding
T1 construct: made in house; host or cells: E. coli (DH5α, BL21 or JM109)
Description: (§1) A Nunc Maxisorp 96 well Immunoplate (Nunc cat#62409-002) was coated with 100 μl of 5 μg/ml goat anti-GST polyclonal antibody (Amersham Pharmacia cat#27-457-01) and incubated overnight at 4° C. The plate was blocked by addition of 200 μl Assay Buffer (2% bovine serum albumin in PBS, pH 7.4) for 1 to 2 hours at room temperature, then washed three times in Assay Buffer.
(§2) 50 μl per well of GST-PDZ fusion proteins (5 μg/ml in Assay Buffer), or, as a negative control, GST polypeptide alone, was added to the plate, and incubated for 1 to 2 hours at 4° C.
(§3) Biotinylated peptides were prepared in Assay Buffer, in half the volume required at 40 μM. HRP-Streptavidin (Zymed cat#43-4323) was diluted 1:1000 in another half volume of Assay Buffer, then mixed with the peptides. The peptide-HRP mixtures were incubated for 20 minutes at room temperature. […]
(§4) The plate was then washed five times with room temperature PBS, and developed by addition of 100 μl/well of HRP substrate solution (3,3′,5,5′, tetramethylbensidine (TMB) (Dako cat#S1600)) for a maximum of 30 minutes in the dark at room temperature. The reaction of HRP and its substrate was terminated by addition of 100 μl of 0.18 M H2SO4 (Sigma cat#S1526), and the absorbance of each well of the plate was read at 450 nm.

KIAA1284 = target: T2, KIAA1284 (Homo sapiens, UniProt Q9ULD6); assay: as above; type: binding
T2 construct: made in house; host or cells: E. coli (DH5α, BL21 or JM109)
T2 sequence (Q9ULD6 with tags, fused parts or gaps): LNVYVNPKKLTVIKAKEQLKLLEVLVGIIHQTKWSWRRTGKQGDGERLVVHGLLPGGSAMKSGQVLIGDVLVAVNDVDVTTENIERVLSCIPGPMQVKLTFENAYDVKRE
Description: as §1, §2, §3, §4

[1] = target: T3, GST-PSD95 d2 (PDZ domain 2) fusion protein (human, UniProt P78352 147-253); assay: modified G assay, peptide titrated against a constant amount of immobilized GST-PDZ fusion; Hill fit
T3 construct: domain: d2; not shown: glutathione-S transferase (GST) encoded by the pGEX-3X vector (Pharmacia); short vector-encoded linker

[2] = target: T4, GST-GORASP1 (PDZ #1) fusion protein (human, UniProt P08515 1-218 = GST); assay: as above
T4 construct: also called GORASP1 d1; GRASP1; not shown: short vector-encoded linker (Gly-Ile, Gly-Ile-Pro-Gly-Asn or Gly-Ile-Pro, by cloning site); which one in this construct

[3] = target: T5, GST-KIAA1284 PDZ domain fusion protein (human, UniProt P08515 1-218 = GST); assay: as above
T5 construct: also called PDZK6; not shown: short vector-encoded linker

[4] = target: T6, GST-TIP2 PDZ domain fusion protein (human, UniProt O14908 118-223); assay: as above
T6 construct: domain: PDZ domain; not shown: glutathione-S transferase (GST) encoded by the pGEX-3X vector (Pharmacia); short vector-encoded linker
T6 sequence (looked up): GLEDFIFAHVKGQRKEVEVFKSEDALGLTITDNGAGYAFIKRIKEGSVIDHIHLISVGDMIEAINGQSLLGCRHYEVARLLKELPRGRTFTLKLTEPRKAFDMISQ

T3 sequence (P78352 147-253): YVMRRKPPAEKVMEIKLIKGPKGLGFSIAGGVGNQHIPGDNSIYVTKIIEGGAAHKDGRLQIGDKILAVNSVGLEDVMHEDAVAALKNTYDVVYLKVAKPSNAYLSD
T5 sequence (P08515 1-218, tags or fused parts left off): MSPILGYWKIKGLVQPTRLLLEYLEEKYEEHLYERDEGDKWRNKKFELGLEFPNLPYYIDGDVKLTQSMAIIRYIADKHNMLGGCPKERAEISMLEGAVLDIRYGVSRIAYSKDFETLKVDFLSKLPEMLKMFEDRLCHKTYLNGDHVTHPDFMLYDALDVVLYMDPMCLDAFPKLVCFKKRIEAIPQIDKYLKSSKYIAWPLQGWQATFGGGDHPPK
T4 sequence (P08515 1-218, tags or fused parts left off): as above
T1 sequence (Q9BQQ3 1-110): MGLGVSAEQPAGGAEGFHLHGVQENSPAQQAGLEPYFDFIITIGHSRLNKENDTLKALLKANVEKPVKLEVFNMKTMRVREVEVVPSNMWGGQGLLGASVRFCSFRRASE

Molecule	EC50 (GORASP1 d1)	EC50 (KIAA1284)	EC50 [1]	EC50 [2]	EC50 [3]	EC50 [4]
CC[C@H](C)[C@H](NC(=O)[C@H](CCCNC(=N)N)NC(=O)[C@H](CCCNC(=N)N)NC(=O)[C@H](CCCNC(=N)N)NC(=O)[C@H](CCC(N)=O)NC(=O)[C@H](CCCNC(=N)N)NC(=O)[C@H](CCCNC(=N)N)NC(=O)[C@H](CCCCN)NC(=O)[C@H](CCCCN)NC(=O)[C@H](CCCNC(=N)N)NC(=O)CNC(=O)[C@H](Cc1ccc(O)cc1)NC(=O)CCCC[C@@H]1SC[C@@H]2NC(=O)N[C@@H]21)C(=O)NCC(=O)N[C@@H](CCC(=O)O)C(=O)N[C@@H](CC(C)C)C(=O)N[C@@H](CCC(N)=O)C(=O)N[C@@H](CC(C)C)C(=O)N[C@@H](CO)C(=O)N[C@H](C(=O)N[C@@H](C)C(=O)O)[C@@H](C)CC [Tat-hCLCA1] (HELM PEPTIDE1{[O=C1N[C@H]2[C@H](CS[C@H]2CCCCC(=O)[*:2])N1].Y.G.R.K.K.R.R.Q.R.R.R.I.G.E.L.Q.L.S.I.A}$$$$V2.0)	120 nM	74 nM	–	–	–	–
B1	–	–	3100 nM	120 nM	74 nM	1100 nM
